Assay [1] addresses T1, CD47 (UniProt Q08722 19-323, limits assumed).
T1 construct: whole, on cells; also called CD47 on CD38^-CD47^+ Jurkat cells; CD47 on CD38^+CD47^+ NCI-H929 cells
The experiment in a line: flow cytometry on CD38^-CD47^+ Jurkat cells, FITC anti-human IgG-Fc. In general terms: In flow cytometry, cells or beads pass a laser one at a time.
Experimental: Cells were washed with cold 1% BSA-PBS twice, and then incubated with FITC-conjugated secondary antibody against human IgG-Fc (Cat #F9512, Sigma) for 45 min. Cells were washed twice and re-suspended in 200 μl PBS. Then, the cells were subject to FACS analysis using a flow cytometer (Merck Millipore, Guava® easyCyte 5HT).

Assay [2] addresses T1, CD47. The experiment in a line: FACS competition against SIRPα-mFc (3 µg/ml) on CD47^+CD38^+ NCI-H929 cells, PE anti-mouse IgG-Fc.
Experimental: The resultant mixtures were added to the wells of a 96-well plate each containing 50 μl 1×10⁶/ml CD47⁺CD38⁺ NCI-H929 cells, and the plate was incubated at 4° C. for 45 min. […] Cells were washed twice, re-suspended in 200 μl PBS, and subject to FACS analysis.

B1: IMM5601 (bispecific antibody, human IgG1, kappa)
heavy: not shown
light: DIVMTQSHLSMSTSLGDPVSITCKASQDVSTVVAWYQQKPGQSPRRLIYSASYRYIGVPDRFTGSGAGTDFTFTISSVQAEDLAVYYCQQHYSPPYTFGGGTKLEIKRTVAAPSVFIFPPSDEQLKSGTASVVCLLNNFYPREAKVQWKVDNALQSGNSQESVTEQDSKDSTYSLSSTLTLSKADYEKHKVYACEVTHQGLSSPVTKSFNRGEC
notes: also called recombinant fusion protein; SIRPαD1-linker-anti-CD38 heavy chain + anti-CD38 light chain
As a reminder, the EC50 is the concentration needed to bring the measured effect to its halfway point. A higher EC50 goes with a less potent agent. One may read the IC50 as the concentration that inhibits the measured activity by half. Read a high IC50 as weaker potency in that assay. In the case of B1, a half-maximal effect in the assay with CD47 [1] (EC50) was put at 14.1 nM. This molecule also gave an IC50 with CD47 [2] of 30.7 nM.

B2: IMM5602 (bispecific antibody, human IgG1, kappa)
heavy: QVQLVQSGAEVAKPGTSVKLSCKASGYTFTDYWMQWVKQRPGQGLEWIGTIYPGDGDTGYAQKFQGKATLTADKSSKTVYMHLSSLASEDSAVYYCARGDYYGSNSLDYWGQGTSVTVSSASTKGPSVFPLAPSSKSTSGGTAALGCLVKDYFPEPVTVSWNSGALTSGVHTFPAVLQSSGLYSLSSVVTVPSSSLGTQTYICNVNHKPSNTKVDKRVEPKSCDKTHTCPPCPAPELLGGPSVFLFPPKPKDTLMISRTPEVTCVVVDVSHEDPEVKFNWYVDGVEVHNAKTKPREEQYNATYRVVSVLTVLHQDWLNGKEYKCKVSNKALPAPIAATISKAKGQPREPQVYTLPPSREEMTKNQVSLTCLVKGFYPSDIAVEWESNGQPENNYKTTPPVLDSDGSFFLYSKLTVDKSRWQQGNVFSCSVMHEALHNHYTQKSLSLSPGK
light: not shown
notes: also called recombinant fusion protein; anti-CD38 heavy chain + SIRPαD1-linker-anti-CD38 light chain
As to B2, in the assay with CD47 [1], the concentration for a half-maximal effect (EC50) was 21.9 nM.

The values are drawn from patent publication US20230110702A1 (IMMUNEONCO BIOPHARMACEUTICALS SHANGHAI, published 2023).
